Measurements reported in article PMC6382702.

Tested on: T1, CagR (Streptomyces clavuligerus F613-1), ORF:155d736f
T1 sequence: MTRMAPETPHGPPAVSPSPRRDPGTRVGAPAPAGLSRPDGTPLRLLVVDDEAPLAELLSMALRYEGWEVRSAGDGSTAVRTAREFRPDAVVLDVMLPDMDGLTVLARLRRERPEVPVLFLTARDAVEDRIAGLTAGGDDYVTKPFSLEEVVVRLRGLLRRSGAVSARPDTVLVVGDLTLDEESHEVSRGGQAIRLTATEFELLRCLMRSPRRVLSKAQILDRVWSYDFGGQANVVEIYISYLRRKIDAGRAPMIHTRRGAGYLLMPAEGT
Assay: EMSA
Settings: EMSA with 3.0 ug His-CagR and polydI/dC (1.0 mg as printed); buffer, pH and temperature not given (as in Zhang et al., 2015)

CGACGCGCTCGGTCACAGGAATCTCCTTACGATGCATGCGGTGATGGAATAAGTATGCACTCGCCCGCATGTTTCGTCAATCATGGGTGCGCGATCGGTGCGTCCGACCGAAAGTGATCGGACGCTTACGCCATGGAGCGGCGCGCTGAACGCGTCGACGGAGGAATCCCCGGGGCCGTCGGACAGCGGCAGGGGTCTTCCGCACGGCGGCGGCCCGCCGCGGCATGCCGCAGGCCCCCGGCCGAGAGGGCCGGGGGCCTGCGGGGGTGGCGGCGCCGCGCCGGAGGGCCGGTCAGGCC (double strand) [argG upstream region (P2)]
binding: binds
